± gives the uncertainty stated by the source.
Experiment: amyloid nucleation score (Sup35N fusion, yeast selection) (log enrichment); library NNK3; higher = more nucleation; inactive = no reads after selection
Method in brief: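 For the nucleation score, DiMSum gave the log enrichment of output over input reads, centred on the mode score of non-aggregating sequences. Psi-negative yeast expressing Sup35N fused to peptides of 20 random codons were induced with 100 μM copper sulfate for 24 hours and grown 7 days at 30°C on medium lacking adenine and uracil. Input and output plasmid inserts were Illumina-sequenced, and sequences with under 100 input reads were excluded.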

Substance	amyloid nucleation score
SWLFVDLYSFHFCFSNYVSY	inactive
SWLKVCRQGYGDSSIRYRLL	inactive
SWNRYTLRLSPSGFLVKVSL	inactive
SWSARVKVLLVVGCNVSVFC	0.842 ± 0.2
SWTSEGDWHYFGYIEVVWHY	inactive
SWWFCVWFQNI	0.888 ± 0.13
SWYRVNYTLPC	inactive
SWYSMGNP	1.04 ± 0.14
SWYVAFFNNSGFSCMGVFVG	inactive
SYCGSSASSASTLEIRYTLA	0.875 ± 0.12
SYCLYKLQLLWHDNHGFGYN	inactive
SYCTYCRKAVGCHVHDEVGG	inactive
SYDVKSSTLW	inactive
SYEGMTREPLYMVYMRGSTD	1.16 ± 0.16
SYFVALMSLRYMESTYWR	inactive
SYFVLVWRETDFKHCLKGNF	inactive
SYGSLM	0.198 ± 0.27
SYISQEFYDFCFKPYLGSLY	inactive
SYLIGIWGFWINGIVFAVCA	inactive
SYLNVLPNFLRLTAICVVFR	inactive
SYLYVTKYVLFDR	inactive
SYMITLLKVIILSWHTYAVM	inactive
SYMLWYSS	inactive
SYMQMTELKEAP	inactive
SYNRAA	inactive

Substance	amyloid nucleation score
SYNSVRW	inactive
SYRKEYYKLGHYSRRMQATS	inactive
SYTFVCRPTFYVCFCGSMCF	2.45 ± 0.065
SYYISMVYTVMSMNASFSRS	inactive
SYYLITDS	inactive
TAESEMNQCVLSRYFSSAIR	inactive
TAESTDCG	inactive
TAFTMGV	inactive
TAGNWWNVCVNTFNRWRRLL	inactive
TAKGVKSDLECGCNVFRTEC	0.457 ± 0.15
TANCLVCVTCSGLMRTT	2.82 ± 0.054
TATWSFNVT	inactive
TAYSLMSIVFGWQPPKCGYE	0.648 ± 0.2
TCCNQRFGVRWNIYYGSDVW	0.742 ± 0.15
TCDIRCCTASPLYNRVM	0.129 ± 0.47
TCEWLSNYFKDLFIMVLSIS	inactive
TCLLIYFMFHGEVMPLWSI	inactive
TCLLMSPVFMVYFLLKTMNS	inactive
TCLRG	inactive
TCSKVFQYG	inactive
TCTCKVRLYCTMARSPFIMG	inactive
TCTSQMLVWYFFPFLINMSW	inactive
TCVIKGGCCGLN	-0.955 ± 2.5
TDCELGLLRL	inactive
TDETSGRSLGVVWEHHAMNH	inactive

Substance	amyloid nucleation score
TDRVCTPSVSDILVRWNNSQ	inactive
TDSNYNFNC	0.214 ± 0.34
TDVSHGNLHGVSSWSGVPAD	inactive
TDYMLVWSQYRLIHFCNLVV	inactive
TEGRVQMWRINALRECTGSS	inactive
TFCLFRS	-0.343 ± 0.63
TFGWINVAYSYSFSICGCTG	2.62 ± 0.051
TFKHTFNNVHCSGAFTGSQL	0.161 ± 0.25
TFKMQWECVIA	0.657 ± 0.16
TFLNSNFFPIWLVVCASA	inactive
TFRLKGALRKVVW	inactive
TFRWFDGIKTLMMD	inactive
TFSGVCIVIAYCGVFNILEG	1.94 ± 0.097
TFVKSLVGGFTRNLVFLAIL	inactive
TFWLH	0.156 ± 0.88
TFWYLFCDDDS	inactive
TFYSSML	inactive
TGFLSIHLSWTYTCYMIVER	inactive
TGGWTNNEQHFENSGMEVGT	inactive
TGHMTDIYYELSHGVEPKGL	inactive
TGIGSLCVLRLTYFIRVSIA	inactive
TGYAFFHEAS	inactive
THFYWADAVVMPAYRVIRRF	inactive
THGVR	inactive
THIGFFFNCIL	2.56 ± 0.082

Substance	amyloid nucleation score
THNVRDMLPATETFASKSGG	1.1 ± 0.17
TICGYI	inactive
TICLDLLDWEVEGPYNVVSG	inactive
TICPWNATLGGKGDRSMK	inactive
TIGFFSVVNYVWFSAYNWQS	-0.453 ± 0.35
TIPFRAINPVSM	inactive
TISLGE	inactive
TIYCWTQNIHDY	2.3 ± 0.086
TKRWFGLCYESVKLRVRSFA	inactive
TKRWHR	inactive
TKVNL	inactive
TKWFCVFTLSRNINRFTRL	inactive
TKYTNPHERSIEMSLFRERQ	inactive
TLCST	inactive
TLFERRCSGTIMHRIQRREF	inactive
TLFGFCAREIVRMRNDHIQV	inactive
TLFSSCGLVHLLNCMRWPPG	inactive
TLGTLSICLCIFRYPGKTEA	inactive
TLHIF	inactive
TLHVCIVLSPGRW	inactive
TLILTDRTWLNDLSSLLIQL	inactive
TLLARFSPRLATTYSNAICG	inactive
TLLGNINPLLW	inactive
TLMISPENIVRR	inactive
TLNGFLNGYEYQ	inactive

Substance	amyloid nucleation score
TLQHLGYVSNIWGVVTAAGS	inactive
TLRDKNLLEPIKCDWYTIKT	inactive
TLRLLDTVMWHKLGGTRAMS	inactive
TLRVYAMVLTWAPKLSFWRS	inactive
TLSCYECPVVVRILVVRNCV	inactive
TLSELLR	inactive
TLSWLRPPPSRPLLFHEVSW	-0.246 ± 0.8
TLTGVPAGSTT	inactive
TLTYRSSQND	inactive
TLVGFRALKYIRWTCLAHRF	inactive
TLVIHIN	inactive
TLYFYNTCLRQCKQYFIDFR	0.305 ± 0.16
TMASYWPMERRRTASELPGV	inactive
TMHLTHRYSTVLRESLVGSR	inactive
TMSVMPLTVQVLVGRISDGQ	1.71 ± 0.071
TMTIDESTWVVSANMSYRMK	1.37 ± 0.1
TNESIMCGLAT	inactive
TNMVMA	inactive
TNQQYGSLGFISTSGIILLF	inactive
TNRMDKYCCV	inactive
TNSFAYNWLNAW	inactive
